{"source": "patent US11542515B2", "about": "“Methods and compositions for increasing efficiency of targeted gene modification using oligonucleotide-mediated gene repair” (CIBUS US LLC, priority 2016, dated 2023)", "tested_on": "EPSPS 2-25 gene", "test": "EPSPS precise edits by Cas9 RNP plus GRON in leaf protoplasts (deep sequencing)", "format": "cell-based, Brassica napus", "conditions": "with Cas9 protein complexed with BnEPSPS gRNA-1, three weeks, three independent experiments", "procedure": "Brassica napus protoplasts derived from leaves of in vitro propagated nodal cuttings were seeded in a 50 ml centrifuge tube at 2,000,000 cells per tube and at a cell density of 5×10^6 cells/ml. CRISPR-Cas9 targeting the EPSPS 2-25 gene along with GRON was delivered as a ribonucleoprotein complex using the PEG method or by alternative delivery methods such as by electroporation, cell-penetrating peptides and/or lipid based delivery techniques. Protoplasts were incubated in the dark at 25° C. for three weeks, and then analyzed deep sequencing in order to determine the percentage of precise EPSPS edits and frequency of indels within a given treatment.\nThe CRISPR-Cas9 consists of two components: the Streptococcus pyogenes Cas9 (SpCas9) and sgRNA which form the RNP CRISPR-Cas9 complex when mixed. The sgRNA is a fusion of CRISPR RNA (crRNA) and trans-activating crRNA (tracrRNA). The crRNA region contains the spacer sequence used to guide the Cas9 nuclease to the EPSPS target gene. In these experiments RNP CRISPR-Cas9 is used to target the EPSPS 2-25 gene. The GRON contains the coding sequence of the EPSPS gene near the site of conversion as well as nucleotide alterations to produce the desired changes to the EPSPS gene.", "note": "d = 2'-deoxy (DNA); m = 2'-O-methyl"}
{"molecule": "2′OMe; BnEPSPS-2-25/NC 101-mer: 101-mer 2OMe GRON targeting Brassica napus EPSPS 2-25, SEQ ID NO: 336 (nucleic acid, sugars from the 5' end m1 d100, backbone and methylation of C not given here) UTACCTTGCGTTGCCACCTGCAGCAGTAACTGCAGCGGTAAGTGTACGCATCGCTATTCCAGCATTCCCAAGGTACAACTCGATATCACTCTTGGAATCTA", "values": [{"measurement": "gene editing in the targeted epsps gene(s)", "value": "0.07-0.125%"}]}
